Source: paper PMC3292765 (2012)

Target: Rac1 (Homo sapiens, UniProt P63000)
Experiment: microscale thermophoresis

Kd: ~40 nM
B1: p67phox 1-212 (protein)
chain: MSLVEAISLWNEGVLAADKKDWKGALDAFSAVQDPHSRICFNIGCMYTILKNMTEAEKAFTRSINRDKHLAVAYFQRGMLYYQTEKYDLAIKDLKEALIQLRGNQLIDYKILGLQFKLFACEVLYNIAFMYAKKEEWKKAEEQLALATSMKSEPRHSKIDKAMECVWKQKLYEPVVIPVGKLFRPNERQVAQLAKKDYLGKATVVASVVDQD
